One assay concerns the target wild-type LFA-1 (αL/β2 complex) (human) (UniProt P05107). Briefly: K562 (+CBRLFA-1/2) cell adhesion to immobilized ICAM-1.
A word on the % inhibition: it is the change of the read-out against control, counted positive when it falls. monoclonal antibody CLBLFA-1/1: the % inhibition was 94.6%.

monoclonal antibody F8.8 gave a % inhibition of 97.6%.

For the substance monoclonal antibody May.017, the % inhibition turned out to be 97.8%.

As for monoclonal antibody May.035, the % inhibition was 95.8%.

In turn, monoclonal antibody S6F1 yielded a % inhibition of 6.19%.

Substance “mouse anti-human αL (CD11a) monoclonal antibody TS1/11” returned a % inhibition of 96.5%.

With “mouse anti-human αL (CD11a) monoclonal antibody TS1/12”, the % inhibition was 97.5%.

In the case of “mouse anti-human αL (CD11a) monoclonal antibody TS1/22”, the % inhibition worked out at 96.9%.

In turn, “mouse anti-human αL (CD11a) monoclonal antibody TS2/4” gave a % inhibition of 6.99%.

In turn, “mouse anti-human αL (CD11a) monoclonal antibody TS2/6” displayed a % inhibition of 91.8%.

With “mouse anti-human αL (CD11a) monoclonal antibody TS2/14”, the % inhibition is 96.2%.

The target of the next assay is LFA-1 single cysteine substitution mutant K294C (human) (UniProt P05107). The assay can be described thus: flow cytometry, 293T; normalised to TS2/4. (In general: A flow cytometer gives signals particle by particle.)
Turning to monoclonal antibody F8.8, the % wild-type binding amounted to 95.5%.

As to monoclonal antibody May.035, the % wild-type binding was 106%.

As for monoclonal antibody S6F1, the % wild-type binding worked out at 92.3%.

On to “mouse anti-human αL (CD11a) monoclonal antibody TS1/12”, for which the % wild-type binding is 93.7%.

Substance “mouse anti-human αL (CD11a) monoclonal antibody TS1/22” registered a % wild-type binding of 92.2%.

Substance “mouse anti-human αL (CD11a) monoclonal antibody TS2/6” had a % wild-type binding of 91.7%.

Substance “mouse anti-human αL (CD11a) monoclonal antibody TS2/14” showed a % wild-type binding of 103%.

In another assay the target is LFA-1 high affinity open mutant K287C/K294C (αL K287C/K294C with β2) (human) (UniProt P05107). The assay can be described thus: flow cytometry, 293T; normalised to TS2/4.
For the substance monoclonal antibody F8.8, the % wild-type binding came out at 93.7%.

In turn, monoclonal antibody May.035 gave a % wild-type binding of 92.6%.

monoclonal antibody S6F1 displayed a % wild-type binding of 89.4%.

On to “mouse anti-human αL (CD11a) monoclonal antibody TS1/11”, for which the % wild-type binding was 94.4%.

With “mouse anti-human αL (CD11a) monoclonal antibody TS1/12”, the % wild-type binding is 88.7%.

On to “mouse anti-human αL (CD11a) monoclonal antibody TS1/22”, for which the % wild-type binding stood at 95.8%.

With “mouse anti-human αL (CD11a) monoclonal antibody TS2/6”, the % wild-type binding came to 84.9%.

On to “mouse anti-human αL (CD11a) monoclonal antibody TS2/14”, for which the % wild-type binding amounted to 85.5%.

A further assay addresses LFA-1 low affinity closed mutant L289C/K294C (αL L289C/K294C with β2) (human) (UniProt P05107). Briefly: flow cytometry, 293T; normalised to TS2/4.
As for monoclonal antibody F8.8, the % wild-type binding worked out at 83.6%.

As to monoclonal antibody May.035, the % wild-type binding is 82.1%.

The substance monoclonal antibody S6F1 came in with a % wild-type binding of 95.3%.

Consider “mouse anti-human αL (CD11a) monoclonal antibody TS1/11”, for which the % wild-type binding was 93.7%.

Turning to “mouse anti-human αL (CD11a) monoclonal antibody TS1/12”, the % wild-type binding was found to be 102%.

“mouse anti-human αL (CD11a) monoclonal antibody TS1/22” yielded a % wild-type binding of 91%.

Take “mouse anti-human αL (CD11a) monoclonal antibody TS2/6”: the % wild-type binding turned out to be 78.6%.

Substance “mouse anti-human αL (CD11a) monoclonal antibody TS2/14” yielded a % wild-type binding of 83.3%.

The next assay concerns the target LFA-1 single cysteine substitution mutant L289C (human) (UniProt P05107). The assay can be described thus: flow cytometry, 293T; normalised to TS2/4.
monoclonal antibody F8.8 displayed a % wild-type binding of 99.6%.

The substance monoclonal antibody May.035 had a % wild-type binding of 95.4%.

For monoclonal antibody S6F1, the % wild-type binding was 86.4%.

The substance “mouse anti-human αL (CD11a) monoclonal antibody TS1/12” returned a % wild-type binding of 104%.

“mouse anti-human αL (CD11a) monoclonal antibody TS1/22” had a % wild-type binding of 96.2%.

The substance “mouse anti-human αL (CD11a) monoclonal antibody TS2/6” gave a % wild-type binding of 88.2%.

Regarding “mouse anti-human αL (CD11a) monoclonal antibody TS2/14”, the % wild-type binding was 100%.

The target of another assay is LFA-1 single cysteine substitution mutant K287C (human) (UniProt P05107). The assay can be described thus: flow cytometry, 293T; normalised to TS2/4.
Substance monoclonal antibody F8.8 gave a % wild-type binding of 95.9%.

For the substance monoclonal antibody May.035, the % wild-type binding is 95.8%.

Consider monoclonal antibody S6F1, for which the % wild-type binding turned out to be 98.3%.

For the substance “mouse anti-human αL (CD11a) monoclonal antibody TS1/12”, the % wild-type binding was determined as 99.3%.

In turn, “mouse anti-human αL (CD11a) monoclonal antibody TS1/22” came in with a % wild-type binding of 103%.

“mouse anti-human αL (CD11a) monoclonal antibody TS2/6” came in with a % wild-type binding of 91.4%.

“mouse anti-human αL (CD11a) monoclonal antibody TS2/14” registered a % wild-type binding of 103%.

The target in another assay is LFA-1 high affinity open mutant K287C/K294C (αL K287C/K294C with β2) (human) (UniProt P05107). Briefly: K562 cell adhesion to immobilized ICAM-1.
monoclonal antibody CLBLFA-1/1 registered a % inhibition of 6.69%.

Substance monoclonal antibody F8.8 yielded a % inhibition of 98.2%.

monoclonal antibody May.017 had a % inhibition of 2.98%.

Take monoclonal antibody May.035: the % inhibition stood at 93.3%.

monoclonal antibody S6F1: the % inhibition was 9.7%.

“mouse anti-human αL (CD11a) monoclonal antibody TS1/11” had a % inhibition of 41.3%.

In turn, “mouse anti-human αL (CD11a) monoclonal antibody TS1/12” registered a % inhibition of 63.7%.

Consider “mouse anti-human αL (CD11a) monoclonal antibody TS1/22”, for which the % inhibition is 93.6%.

Substance “mouse anti-human αL (CD11a) monoclonal antibody TS2/4” came in with a % inhibition of 2.82%.

“mouse anti-human αL (CD11a) monoclonal antibody TS2/6”: the % inhibition is 88.1%.

With “mouse anti-human αL (CD11a) monoclonal antibody TS2/14”, the % inhibition stood at 8.55%.

Another assay shares this target. The assay can be described thus: 293T cell adhesion to immobilized ICAM-1.
The substance monoclonal antibody F8.8 registered a % inhibition of 91.9%.

As to monoclonal antibody May.035, the % inhibition is 97.4%.

“mouse anti-human αL (CD11a) monoclonal antibody TS1/11”: the % inhibition is 45.2%.

“mouse anti-human αL (CD11a) monoclonal antibody TS1/12” registered a % inhibition of 49%.

Turning to “mouse anti-human αL (CD11a) monoclonal antibody TS1/22”, the % inhibition amounted to 95.1%.

Turning to “mouse anti-human αL (CD11a) monoclonal antibody TS2/6”, the % inhibition was determined as 79.1%.

With “mouse anti-human αL (CD11a) monoclonal antibody TS2/14”, the % inhibition worked out at 2.95%.

A further assay deals with wild-type LFA-1 (αL/β2 complex) (human) (UniProt P05107). Briefly: 293T cell adhesion to immobilized ICAM-1.
monoclonal antibody F8.8 showed a % inhibition of 94.5%.

In turn, monoclonal antibody May.035 gave a % inhibition of 96.2%.

For “mouse anti-human αL (CD11a) monoclonal antibody TS1/11”, the % inhibition is 94.1%.

For the substance “mouse anti-human αL (CD11a) monoclonal antibody TS1/12”, the % inhibition came to 95.7%.

In turn, “mouse anti-human αL (CD11a) monoclonal antibody TS1/22” registered a % inhibition of 95.8%.

“mouse anti-human αL (CD11a) monoclonal antibody TS2/6” yielded a % inhibition of 96.8%.

For the substance “mouse anti-human αL (CD11a) monoclonal antibody TS2/14”, the % inhibition is 94.5%.

The target in another assay is LFA-1 high affinity open mutant K287C/K294C (αL K287C/K294C with β2) (human) (UniProt P05107). Briefly: cell adhesion to immobilized ICAM-1.
The substance “mouse anti-human αL (CD11a) monoclonal antibody TS1/11” yielded a % inhibition of 40 to 60%.

In the case of “mouse anti-human αL (CD11a) monoclonal antibody TS1/12”, the % inhibition fell in the range of 40 to 60%.

The target in another assay is wild-type LFA-1 (αL/β2 complex) (human) (UniProt P05107). Briefly: cell adhesion to immobilized ICAM-1.
For monoclonal antibody CLBLFA-1/1, the % inhibition is > 90%.

With monoclonal antibody May.017, the % inhibition is > 90%.

For “mouse anti-human αL (CD11a) monoclonal antibody TS1/11”, the % inhibition was > 90%.

Consider “mouse anti-human αL (CD11a) monoclonal antibody TS1/12”, for which the % inhibition is > 90%.

Consider “mouse anti-human αL (CD11a) monoclonal antibody TS2/14”, for which the % inhibition is > 90%.

The target in another assay is LFA-1 high affinity open mutant K287C/K294C (αL K287C/K294C with β2) (human) (UniProt P05107). Briefly: flow cytometry, K562; normalised to TS2/4.
Regarding monoclonal antibody CLBLFA-1/1, the % wild-type binding came out at 96.5%.

Turning to monoclonal antibody F8.8, the % wild-type binding is 102%.

Regarding monoclonal antibody May.035, the % wild-type binding came out at 92.6%.

Turning to monoclonal antibody S6F1, the % wild-type binding was found to be 97.4%.

Consider “mouse anti-human αL (CD11a) monoclonal antibody TS1/11”, for which the % wild-type binding was found to be 96%.

In turn, “mouse anti-human αL (CD11a) monoclonal antibody TS1/12” showed a % wild-type binding of 87.3%.

“mouse anti-human αL (CD11a) monoclonal antibody TS1/22”: the % wild-type binding was 93.1%.

The substance “mouse anti-human αL (CD11a) monoclonal antibody TS2/6” yielded a % wild-type binding of 89.2%.

Consider “mouse anti-human αL (CD11a) monoclonal antibody TS2/14”, for which the % wild-type binding was 95.4%.

For another assay, the target named is LFA-1 low affinity closed mutant L289C/K294C (αL L289C/K294C with β2) (human) (UniProt P05107). Briefly: flow cytometry, K562; normalised to TS2/4.
As to monoclonal antibody CLBLFA-1/1, the % wild-type binding was found to be 100%.

With monoclonal antibody F8.8, the % wild-type binding was 93.9%.

For the substance monoclonal antibody May.035, the % wild-type binding was found to be 101%.

The substance monoclonal antibody S6F1 came in with a % wild-type binding of 85.7%.

The substance “mouse anti-human αL (CD11a) monoclonal antibody TS1/11” came in with a % wild-type binding of 105%.

As to “mouse anti-human αL (CD11a) monoclonal antibody TS1/12”, the % wild-type binding was 106%.

Consider “mouse anti-human αL (CD11a) monoclonal antibody TS1/22”, for which the % wild-type binding amounted to 110%.

“mouse anti-human αL (CD11a) monoclonal antibody TS2/6” gave a % wild-type binding of 95.9%.

On to “mouse anti-human αL (CD11a) monoclonal antibody TS2/14”, for which the % wild-type binding came to 103%.

The record behind these values is patent US20020123614A1.
